Experiments:
SEC-MALS = molecular target: the molecule itself; assay: SEC-MALS
SEC = molecular target: the molecule itself; assay: SEC
native gel or EMSA = molecular target: the molecule itself; assay: native gel or EMSA

B1: purified mouse TMC1 (mmTMC1) reconstituted into amphipols (natural protein, UniProt Q8R4P5 1-757, looked up)
chain: MLQIQVEEKEEDTEESSSEEEEDKLPRRESLRPKRKRTRDVINEDDPEPEPEDEETRKAREKERRRRLRRGAEEEEEIDEEELERLKALLDENRQMIATVKCKPWKMEKKIEVLKEAKKFVSENEGALGKGKGKKWFAFKMMMAKKWAKFLRDFENFKAACVPWENKIKAIESQFGSSVASYFLFLRWMYGVNMVLFVLTFSLIMLPEYLWGLPYGSLPRKTVPRAEEASAANFGVLYDFNGLAQYSVLFYGYYDNKRTIGWLNFRLPLSYFLVGIMCIGYSFLVVLKAMTKNIGDDGGGDDNTFNFSWKVFCSWDYLIGNPETADNKFNSITMNFKEAIIEERAAQVEENIHLIRFLRFLANFFVFLTLGASGYLIFWAVKRSQEFAQQDPDTLGWWEKNEMNMVMSLLGMFCPTLFDLFAELEDYHPLIALKWLLGRIFALLLGNLYVFILALMDEINNKIEEEKLVKANITLWEANMIKAYNESLSGLSGNTTGAPFFVHPADVPRGPCWETMVGQEFVRLTVSDVLTTYVTILIGDFLRACFVRFCNYCWCWDLEYGYPSYTEFDISGNVLALIFNQGMIWMGSFFAPSLPGINILRLHTSMYFQCWAVMCCNVPEARVFKASRSNNFYLGMLLLILFLSTMPVLYMIVSLPPSFDCGPFSGKNRMFEVIGETLEHDFPSWMAKILRQLSNPGLVIAVILVMVLTIYYLNATAKGQKAANLDLKKKMKQQALENKMRNKKMAAARAAAAAGGQ
stoichiometry N (SEC-MALS): 2

B2: human TMC1 (hsTMC1) fused to GFP (natural protein, UniProt Q8TDI8 1-760, looked up)
chain: MSPKKVQIKVEEKEDETEESSSEEEEEVEDKLPRRESLRPKRKRTRDVINEDDPEPEPEDEETRKAREKERRRRLKRGAEEEEIDEEELERLKAELDEKRQIIATVKCKPWKMEKKIEVLKEAKKFVSENEGALGKGKGKRWFAFKMMMAKKWAKFLRDFENFKAACVPWENKIKAIESQFGSSVASYFLFLRWMYGVNMVLFILTFSLIMLPEYLWGLPYGSLPRKTVPRAEEASAANFGVLYDFNGLAQYSVLFYGYYDNKRTIGWMNFRLPLSYFLVGIMCIGYSFLVVLKAMTKNIGDDGGGDDNTFNFSWKVFTSWDYLIGNPETADNKFNSITMNFKEAITEEKAAQVEENVHLIRFLRFLANFFVFLTLGGSGYLIFWAVKRSQEFAQQDPDTLGWWEKNEMNMVMSLLGMFCPTLFDLFAELEDYHPLIALKWLLGRIFALLLGNLYVFILALMDEINNKIEEEKLVKANITLWEANMIKAYNASFSENSTGPPFFVHPADVPRGPCWETMVGQEFVRLTVSDVLTTYVTILIGDFLRACFVRFCNYCWCWDLEYGYPSYTEFDISGNVLALIFNQGMIWMGSFFAPSLPGINILRLHTSMYFQCWAVMCCNVPEARVFKASRSNNFYLGMLLLILFLSTMPVLYMIVSLPPSFDCGPFSGKNRMFEVIGETLEHDFPSWMAKILRQLSNPGLVIAVILVMVLAIYYLNATAKGQKAANLDLKKKMKMQALENKMRNKKMAAARAAAAAGRQ
stoichiometry N (SEC): 2

B3: purified human TMC1 (hsTMC1) reconstituted into amphipols (natural protein, UniProt Q8TDI8 1-760, looked up)
chain: B2 chain
stoichiometry N (native gel or EMSA): 2

Reference: PMC6360533 (Neuron, 2018)
